Assay results taken from the NTF2 design screens of Basanta et al. (2020).

Assay: protease stability score; higher = more stable; yeast display proteolysis, trypsin and chymotrypsin;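 also: relative to predicted unfolded state with 0 unfolded-like and 1 meaning tenfold more protease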

Sequence: DEDEEEAEKFFWTWVESVLTGDEDMLHHLVDPNVRYSQGEKQIHGRESVVKFMSEARVDSIRIKSMHIFNGRINIDSEIDGVINGKRTRIKVHLYILKVDGRWLMQSIEVK
- protease stability score: 2.03

Sequence: DEDEEEAKEFLRIYIEALRTGDEDLWKEMADPNMRLIVGDKERHGRESYTHWERELGYRLEHIHIDHVTFQGDKVDVETTLRIHINGQTHDVEIHLIVTKIDGRWHMKEIIIK
- protease stability score: 1.08

Sequence: DEDEEEALDFMRLLVESLQTGDEELISRMADPNVLLIVNGVEHVGREFYVKWVKHLVERVDHMEIRLKRIEIYDGRAHLDTEVIFRFNGRELRKKTHLIIEKVDGRWILKSVIVE
- protease stability score: 2.35

Sequence: DEDEEEARKSFKHLLRSRMTGDEDSLKSLIDPNARFDIDGKELIGREAEELLLEKFKNIKLHDVKLNDWRVDEHHVVWRIELDGFYNGKRDSLDFTLIVKKVNGRWVIHQVKLI
- protease stability score: 1.39

Sequence: DEDEEEIKRMIEEWFRSLVTGDEHQLKELMDPHVRLDINGVEHIGREEIVERLVKEARQADHMEFRVRDVRLVGDYAEIDGELIVNYNGREKSIETRIILWKFNGRWIDHQVHYK
- protease stability score: 1.03

Sequence: DEDEEELEKMLHKMLESLRTGDWKDITENLDPHTRFNINGVDFHGRELAHEVLHEWFERYKNIRIFLNTSRTINGRVELILRIEIGDKEEEMRILVIKVDGRWFMDTVDVRTR
- protease stability score: 2.13

Sequence: DEDEEEMEKMSREISEMLLTGDFDRLLELLDPNYRLRIGDKDLHGREEAKKHMHELFRHLGVDKFEVRLKQVELVDGVIWVHIEQRYDGRDFQIHVINKKIDGRWHVRRVEFE
- protease stability score: 1.72

Sequence: DEDEEEMHHRIEEHFEYLRTGDWKLIRNLVDPSVRVDVDGKEHHGWHEFVRYAVHIRVRRYELKHIRIIDGQVDFQGRIDGEIDGKFRSFNIFIIAQKIDGRWIFKEVRMH
- protease stability score: 1.68

Sequence: DEDEEEMRRVVELLVRDHFTGNFEKLKDLFDPNAKSDVDGVSMVGREWLEFLKRYLGADHIEVRVRHEDYYGNKVHFHLEIISRYGDKEIHVDTEMVIDKVDGRWYVRETRFK
- protease stability score: 0.854

Sequence: DEDEEESRRFTEILLHKFWTGDEDWYRKMADPNDKSVVGDKLFHGRDEVDRAIHEFLRHLGVDHFELHRLEVDHYNGKAEVRSDMILRVNGQERRMILKVHNTKFNGRWTLESVRIESR
- protease stability score: 0.715

Sequence: DEDEEEVIKFFQEFLRDELTGDWHEVHRMLDPHARLDINGKHFVGREDVTEFFKKLVNELRIHDVHIKDVRIIGEKASIDTSVDGEVNGRKRHFETRIIILKIDGQWFLHEVHMR
- protease stability score: 1.47

Sequence: DEDEEEVRKFLHLELRSMETGDEHDLRRLADPHVRIHINGVILHGWEFFLETFRKLGFDHLRIEHVEVQGEKVHIKSRFEIGDKSFETEIIIRKVDGRWYVESIIVN
- protease stability score: 0.873

Sequence: DEDEEEWHRFLELVHHFLRTGDWRRILDLIDPRALVHVGDKTFHGRHAIEHLLRHIHDRIPGMKQSLIIDHHDSQGDKIHLDVTLDLHFNGVEYHLRERTLELKINGKWVEKVREVD
- protease stability score: 0.821

Sequence: DEDEEEYRRMHEILDDALETGDEHTISRMADPHVRNEINGVKLHGREIWFEYMKRLLDHLGVDNIKIKIRLRHIDRQGDKVLSETRLHVYFNGVEERRRTSQVWLKIDGQWHLHHVSVE
- protease stability score: 0.869

Sequence: DEDEEFAENVVERTIHHTQTGDWRMLKHLLDPHVRMNIDGQELHGREQWIRFMEQIKGATLELHIEDFDSQGEKLTLHVRTILVFDGRKYERHVDLLILKVDGRWHIHQFIVR
- protease stability score: 1.41

Sequence: DEDEEFAKELLERTAESIVTGDEDMWREYFDPHARIEFNGKDYHGWHEFERMLRELRVHRVEVEVKRVHLYDGRMDVKGELHIKGTFDGRRVEESTDVDYFIIKIDGQWYIRHETII
- protease stability score: 0.761

Sequence: DEDEEFSKEAFEMVEWVIRTGDERLIEHMMDPNAKILIDGQEFWGRHIFSKHVEELGIDHIDDFQVKDVTFFNGRVNLNGELRGNFNGKETTFELHTIALKVNGQWINHSLEIK
- protease stability score: 0.658

Sequence: DEDEEFWKELLRLFNEALITGDEDLLSHYADPNTRIRDENHKIHGRERYSRLMVKLGIDHVHLHSFTIIDGVAHIHLEWHQGDKTLDVRSYSRKFNGRWFLTHVRIK
- protease stability score: 1.05

Sequence: DEDEEHARHMLEIFMHAVITGDEDTLKELVDPNVKLVVNGREFHGWEEYLKVHRHWRMRDAHIKHVEVQGEKVIVDTRLHGRVDGKLTDFRTEIIVRKINGRWHLESERVH
- protease stability score: 2.13

Sequence: DEDEEHAYRIFKILLESVYTGNEEMLHTLLDPHARLVFDGVHHHGRETVSYMMHHWRVEEFHTHSFHVDIINGVADLKWDGHITGHFNGKRQESRVEIRFFLRKVDGKWLNESVEIIFR
- protease stability score: 1.49

Sequence: DEDEEIARKIMEMLIEELRTGDEEKSTENADPNVRVHFNGKDLHGWEEFSRLASKFKGLRFILRRMDVFNGRVVIDGEERWDGRTHRVILHIEKVNGRWRIKQVDIH
- protease stability score: 1.63

Sequence: DEDEEIAVKSYKKIVEDFFTGDEDSARRNADPDVLLRVGDKELHGWKHMTSWVHELRIHRIDIREIRVIGDKMFLHGEVDSEIDGKRLEFHLKLRMEKVDGRWIIRKIEIK
- protease stability score: 1.49

Sequence: DEDEEIDKHVAKHLEELFLTGDEKRLSQYFDPDVRNEVNGKEFHGRELLLKVLRDFGADHRTVEHREVSLYGEKMRFHIHLRLHVGDKSMTTILHIIIDKVNGRWHFEKIRIDVR
- protease stability score: 0.798

Sequence: DEDEEIIEKWVKMMLDAAHTGDERIIEENFDPNTRIHVDGQNHHGREHVHELRRRADYIRIILIIRSIRTQGDYVHVKGEIRIRINWNGRELHLEVEVEIIFLKFDGRWHIRSIVSI
- protease stability score: 0.889

Sequence: DEDEEIRTRSLRLLIQLLITGDEEIFKQLFDPHALVIINGRRHHGWTLLEEYWRRLGADVIKSVELENTDDVNGVLILDMRLHMHINGRDDSQRIHIIATKINGKWRNESIVLS
- protease stability score: 1.22

Sequence: DEDEEISHRMVRLIMQLMVTGDEESLKEYFDPNTRLFIDGRNNHGRELAVDEIQKHFEELGVDHIEIRIHHKDAQGDFVEIHIRLIIHVGDFEVRSTVHIFVRKVDGRWMIEKIEIK
- protease stability score: 2.03

Sequence: DEDEEISKRLLKQLIHMLKTGDEDLFWHLFDPDTRLIVGDKEDHGREELAKSIRELWHEIRIERLHLRSIHIIGDFIHLIVRLIRNVNGKKDDINLELIVIKVDGKWRFKEMEIQ
- protease stability score: 1.44

Sequence: DEDEEITERIIRLLLNAWMTGDEEMLKRLFDPHVRIDQGDKNLIGWEELERETRRIDHIRLDLRIKHIKVYDGRVEINSFLHVDLHINGVTLHHELRMHIIIEKVDGRWIIHSQKLE
- protease stability score: 1.25

Sequence: DEDEEKAKEAWEDIVRDIETGNEESMEKMLDPNTRLVVGEKERHGWESASKFVRELRHRVDHVELRLKDSKLYNGRVELDGLLIENFNGVEVRHKMIVFILKINGRWHIESVIIH
- protease stability score: 1.44

Sequence: DEDEEKARKFTELLVRSWRTGDEDSLREMVDPHVRVDVDGVKLHGWHDFMKLVRHIRVRDLHNREFTFFEGRADIIQETDVDIGDKERRTVITIRMTKYDGRWFLHNVTVH
- protease stability score: 1.38

Sequence: DEDEEKKDEARRLWEENLMTGDEETLFRLADPHVRTVINGVEFHGREEMLKAIRWLRHDLGAKHIDSIHIDSVTIQGDFVIVHGHLRFSIGDKRTDSEVHLHVLKVDGKWYVHEVNIN
- protease stability score: -0.183

Sequence: DEDEEKLKEFRDVLLHAISTGDEETIKTLVDPHVRIEIDGKERHGRDKVTKLFRDLGVDHVRLTEVSIIGDKLHLDLRLRYGDKERTMIWIISKINGRWLIHTVETH
- protease stability score: 1.15

Sequence: DEDEEKVEHISKEYFRSFVTGDEDKLRKLLDPNARVYFNGQTVIGRELATKIVLELRNRQVEVDHLHIEYQGDKARLHQITTIDGHINGRDEWFEFHIEVHLRKVNGKWVIQRSEFEIR
- protease stability score: 0.252

Sequence: DEDEELAKHAIKHWLEALETGDEKRLKELIDPNTRLIVNGQEFHGMESVSKKLIEEIERIPNVTLELHDVRIYNGRVNTDVTVRYNGRTITLHLIILKVNGKWIMESIQLH
- protease stability score: 1.78

Sequence: DEDEELAKKAVEEFFTAWETGNEERLEELMDPNVRSHINGVDLHGMERTSEYIRRLGHTKVETYLRRVRVFENRVEVDGDIIVDGRKHKFHLDMRKINGRWFIHRVSVK
- protease stability score: 2.42

Sequence: DEDEELAKKFIEEWHESVLTGDEDSLRKLADPNMKVNVDGRHMVGWEYYKHLLERIDHLTSIEIKRLRVIDGVIDTDVRMDITFDGKRHLLETQLIVLKVNGRWHLRSISMK
- protease stability score: 1.36

Sequence: DEDEELALKMLEQWLRDLLTGDEETMVDLLDPNARLEIGDKENHGRDEVRKFWEELKKRFKNVRMEIEVHEIRVIGNKVHSINTLIIIIGDKRIKHHIHVHVVIFNGRVHSVHISIH
- protease stability score: 1.35

Sequence: DEDEELARKFIKKTSEARETGNEDDFMNLADPNVRQDINGVPIIGREEVSRIISHLRIRMEIRIRDVRIVGEKVELDVHIRMDIDFDGQRIHDKRDVHIILVKIDGKWLLHSVNHR
- protease stability score: 0.536

Sequence: DEDEELARKVLKVWNQAVQTGDEEVLHKLFDPNVQLVQGDKQLHGMESLVRFLRRYDVVRHVDSDVERIHVQGDKIRVTIRLIVDMEINGKRVRTELTIHFIIEKIDGRWVLRELHFE
- protease stability score: 0.964

Sequence: DEDEELARQIWELFVRAEETGDEELLEKLIDPHTRLHIGDKVFHGRDAIKHIRKRVDHVKRVHVESIRVFDGRVEIHSRQRWEINGVEVEQKFRFTMQKINGRWIMHDMSIL
- protease stability score: 1.79

Sequence: DEDEELARRHLKRLMEIWNTGDEDSHRHLADPHMRYIYNGKQTHGRQVSAKILLEMRIDHLEIKRMHLVDGKLEIDGRMEGEVNGRKDTVEVIIHNEKVNGRWIIRELQFG
- protease stability score: 0.503

Sequence: DEDEELDRKFTTLFLHLWETGDEDTMRDLLDPDVRLLIIYNGRHIEVHGREHMSKFLKDFWRKFKNLRIHVKHVEAIDGVVHISGETRFDGRSTLVQIDIDVVDGRIKSERYIFR
- protease stability score: 1.76

Sequence: DEDEELIEKLLRLEEFAHKTGDERIMEELADPNTRLDINGRREHGMESFIRWLREARYTHFIWRDKIEIGEKMEIQGEVEGTYNGVRHRTEVILFVEKINGRWIIKEIEVR
- protease stability score: 1.76

Sequence: DEDEELLREFFELLVEAELTGDEKEITRFADPNVILFQGEKEFHGRDFLIRLIMEIRIHHHELERFHLDVFNGRAEIHVDNRRDGWFDGKRIHTKVDLHIHSEKIDGRWLLKNINEILR
- protease stability score: 0.716

Sequence: DEDEELLRRRADLFLKAYITGDENLLKRLADPDVLFDVNGRVFHGREHFITWLHRQLREFKNMRIHIRDIKHEVQGNFLHSEVDVTININGKEHWFILILIASKVDGKWIVEQIEIRFE
- protease stability score: 1.48

Sequence: DEDEELMRRVVEIYIRALHTGDEDWMTHLADPHVKVDLLIDGRETELHGREWVVEIARKLGVKHSEVKDVHLVGDYIVIHLHLRIGDKEEEQDLIFLKVDGKWTLESSTIRRI
- protease stability score: 1.53

Sequence: DEDEELRRRRSEIVRKDWETGDWKSIEELADPHVKNHIGEYLAVGRENLVFVLEHFLKVLGVKHREIHSSELHIVNGRAEVHIDTRLVVNGRNIKTHVRFIFDKVNGRWVMHSVEFHVD
- protease stability score: 1.25

Sequence: DEDEELSERATREFIENWKTGNFDDLMKLLDPNVKLDVGDKRHHGRERMVRSMVEILKHLGANVIDIHDTDVYDGRIDIHLRLEAENHHSILTIHIEKINGRWLIRSMEIK
- protease stability score: 1.26

Sequence: DEDEELSERVTREWLHAILTGDEDWLRRYVDPHVRVHINVDGKDRTVHGMDFLIEHLRRVPNVRFIIKHMEVETQGEKVIIRVNVRIRVGDKEHETEIILIVLKVDGRWIATSIFIHIR
- protease stability score: 0.231

Sequence: DEDEELTRQIIEHIERNIETGDERRYRELVDPNARVDYNGVDKHGMHAILEVWNHIQHEFRGATIEHSRVRDWRFQGDKVILNFEHYFRIGDKNWRLDTRIIVDKVDGRWVIREVQIR
- protease stability score: 1.47
